According to patent US20190233494A1 (Sanofi, published 2019):
Starred links: 1 amine or outer side, 2 acyl side, 3 side chain; linkers in the order of their positions; H or OH if unused. Non-standard residues stand in square brackets, D forms with d. Groups on a side chain read outwards from the residue. *: point of attachment. TTDS = 4-[3-[2-[2-(3-aminopropoxy)ethoxy]ethoxy]propylamino]-4-oxo-butanoyl; γGlu = O=C(O)[C@H](CCC(=O)[*:2])N[*:1]; Stearoyl = CCCCCCCCCCCCCCCCCC(=O)*; Palmitoyl = CCCCCCCCCCCCCCCC(=O)*; Cit = NC(=O)NCCC[C@H](N)C(=O)O; αMeK = C[C@](N)(CCCCN)C(=O)O; hLys = NCCCCC[C@H](N)C(=O)O; AEEA = NCCOCCOCC(=O)O; Aib = CC(C)(N)C(=O)O

T1: RXFP1 receptor (endogenous, on OVCAR5 cells) (UniProt Q9HBX9 1-757, limits assumed)
T1 sequence (looked up): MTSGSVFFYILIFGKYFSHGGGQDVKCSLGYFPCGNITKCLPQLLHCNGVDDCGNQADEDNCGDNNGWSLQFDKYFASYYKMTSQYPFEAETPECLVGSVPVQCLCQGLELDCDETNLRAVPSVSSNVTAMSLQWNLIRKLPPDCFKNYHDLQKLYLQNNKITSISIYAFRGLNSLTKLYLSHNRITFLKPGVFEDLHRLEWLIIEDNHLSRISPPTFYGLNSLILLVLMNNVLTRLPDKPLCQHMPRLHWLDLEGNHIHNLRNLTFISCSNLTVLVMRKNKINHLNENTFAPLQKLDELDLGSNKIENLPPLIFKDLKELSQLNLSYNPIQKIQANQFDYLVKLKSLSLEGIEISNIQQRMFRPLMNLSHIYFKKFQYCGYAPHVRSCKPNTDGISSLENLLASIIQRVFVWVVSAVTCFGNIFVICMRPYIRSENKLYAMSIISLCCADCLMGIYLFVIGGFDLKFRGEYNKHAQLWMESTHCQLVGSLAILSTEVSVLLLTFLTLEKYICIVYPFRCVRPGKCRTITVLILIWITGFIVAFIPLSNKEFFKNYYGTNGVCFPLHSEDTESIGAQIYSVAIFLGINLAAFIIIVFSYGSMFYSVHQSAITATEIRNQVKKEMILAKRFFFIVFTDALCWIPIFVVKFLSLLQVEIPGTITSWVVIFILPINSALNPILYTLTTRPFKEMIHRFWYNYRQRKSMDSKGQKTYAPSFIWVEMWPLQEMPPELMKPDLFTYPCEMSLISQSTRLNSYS


target: T1, RXFP1 receptor (endogenous, on OVCAR5 …); assay: cell-based or functional assay

| Binder | EC50 (nM), OVCAR 5 cells (cAMP) [nM] | EMax, OVCAR 5 cells (cAMP) [%] |
| --- | --- | --- |
| Ac-LEGREKVRAK(Ac)I[Aib][Aib]EGK([AEEA-AEEA-AEEA-AEEA-AEEA-γGlu-γGlu-γGlu-Palmitoyl])STFS[αMeK]RAK(Ac)-NH2 (SMILES CCCCCCCCCCCCCCCC(=O)N[C@@H](CCC(=O)N[C@@H](CCC(=O)N[C@@H](CCC(=O)NCCOCCOCC(=O)NCCOCCOCC(=O)NCCOCCOCC(=O)NCCOCCOCC(=O)NCCOCCOCC(=O)NCCCC[C@H](NC(=O)CNC(=O)[C@H](CCC(=O)O)NC(=O)C(C)(C)NC(=O)C(C)(C)NC(=O)[C@@H](NC(=O)[C@H](CCCCNC(C)=O)NC(=O)[C@H](C)NC(=O)[C@H](CCCNC(=N)N)NC(=O)[C@@H](NC(=O)[C@H](CCCCN)NC(=O)[C@H](CCC(=O)O)NC(=O)[C@H](CCCNC(=N)N)NC(=O)CNC(=O)[C@H](CCC(=O)O)NC(=O)[C@H](CC(C)C)NC(C)=O)C(C)C)[C@@H](C)CC)C(=O)N[C@@H](CO)C(=O)N[C@H](C(=O)N[C@@H](Cc1ccccc1)C(=O)N[C@@H](CO)C(=O)N[C@@](C)(CCCCN)C(=O)N[C@@H](CCCNC(=N)N)C(=O)N[C@@H](C)C(=O)N[C@@H](CCCCNC(C)=O)C(N)=O)[C@@H](C)O)C(=O)O)C(=O)O)C(=O)O) [peptide of SEQ ID NO: 45] | 0.45 | 96 |
| Ac-LEGREKVRAKI[Aib][Aib]EGK([TTDS-TTDS-TTDS-γGlu-γGlu-γGlu-Palmitoyl])STFS[αMeK]RAK(Ac)-NH2 [peptide of SEQ ID NO: 47] | 0.64 | 95 |
| Ac-LEGREKVRAQI[Aib][Aib]EGK([TTDS-TTDS-TTDS-γGlu-γGlu-γGlu-Palmitoyl])STFS[αMeK]RAK(Ac)-NH2 [peptide of SEQ ID NO: 48] | 0.45 | 96 |
| Ac-LEGREKVRAK(Ac)I[Aib][Aib]EGK([TTDS-TTDS-TTDS-γGlu-γGlu-γGlu-Palmitoyl])STFS[αMeK]RAK-NH2 [peptide of SEQ ID NO: 49] | 0.19 | 97 |
| Ac-LEGREKVRAK(Ac)I[Aib][Aib]EGK([TTDS-TTDS-TTDS-γGlu-γGlu-γGlu-γGlu-Stearoyl])STWS[Aib]RKK(Ac)-NH2 [peptide of SEQ ID NO: 51] | 0.1 | 98 |
| Ac-LEGREKVRAK(Ac)I[Aib][Aib]EGK([TTDS-TTDS-γGlu-γGlu-γGlu-γGlu-Stearoyl])STWS[Aib]RKK(Ac)-NH2 [peptide of SEQ ID NO: 54] | 0.16 | 96 |
| Ac-LEGRERVRAK(Ac)I[Aib][Aib]EGK([TTDS-TTDS-TTDS-γGlu-γGlu-γGlu-Palmitoyl])STWS[Aib]RRK(Ac)-NH2 [peptide of SEQ ID NO: 55] | 0.18 | – |
| Ac-LEGREKVRA[Cit]I[Aib][Aib]EGK([TTDS-TTDS-TTDS-γGlu-γGlu-γGlu-Stearoyl])STFS[αMeK]RAK(Ac)-NH2 [peptide of SEQ ID NO: 56] | 0.15 | 91 |
| Ac-LEGREKVRAK(Ac)I[Aib][Aib]EGK([TTDS-TTDS-TTDS-γGlu-γGlu-γGlu-Palmitoyl])STWS[hLys]RAK(Ac)-NH2 [peptide of SEQ ID NO: 57] | 0.44 | 98 |

target: T1, RXFP1 receptor (endogenous, on OVCAR5 …); assay: cell-based or functional assay; remark: another data set of the same source

| Binder | EC50 (nM), cAMP assay in OVCAR 5 cells [nM] | Emax, cAMP assay in OVCAR 5 cells [%] |
| --- | --- | --- |
| H-VIKLSGRELVRAQIAISGMSTWSKRSL-NH2 [B7-33 C11.23S] | 1640 | 90 |
| Ac-VIKLSGRELVRAQIAISGMSTWSKRSL-NH2 [AcB7-33 C11.23S] | 929 | 70 |
